Measurements from patent publication US20190112393 (published 2019).
Read-outs that look alike come from different tables or passages of the source.

T1: human FcγRIa (human, UniProt P12314)
T1 chain: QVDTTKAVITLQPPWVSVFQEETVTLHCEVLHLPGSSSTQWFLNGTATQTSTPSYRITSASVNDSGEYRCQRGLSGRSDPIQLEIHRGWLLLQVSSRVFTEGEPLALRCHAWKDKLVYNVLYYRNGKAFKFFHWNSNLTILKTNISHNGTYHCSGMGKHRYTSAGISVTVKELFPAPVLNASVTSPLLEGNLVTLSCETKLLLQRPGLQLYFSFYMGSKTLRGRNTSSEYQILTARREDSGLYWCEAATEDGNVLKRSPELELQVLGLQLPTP


Experiments:
[1] = biological target: human FcRn (human); assay: SPR, pH 6.0
[2] = biological target: T1, human FcγRIa; assay: SPR
[3] = biological target: T1, human FcγRIa; assay: SPR

Binder | Kd [2] | Kd [3] | further results
F1172 (antibody) chain 1: QVQLQESGPGLVKPSETLSLTCAVSGHSISHDHAWSWVRQPPGEGLEWIGFISYSGITNYNPSLQGRVTISRDNSKNTLYLQMNSLRAEDTAVYYCARSLARTTAMDYWGEGTLVTVSSASTKGPSVFPLAPSSKSTSGGTAALGCLVKDYFPEPVTVSWNSGALTSGVHTFPAVLQSSGLYSLSSVVTVPSSSLGTQTYICNVNHKPSNTKVDKKVEPKSCDKTHTCPPCPAPELLGGPSVFLFPPKPKDTLMISRTPEVTCVVVDVSHEDPEVKFNWYVDGVEVHNAKTKPREEQYNSTYRVVSVLTVLHQDWLNGKEYKCKVSNKALPAPIEKTISKAKGQPREPQVYTLPPSRDELTKNQVSLTCLVKGFYPSDIAVEWESNGQPENNYKTTPPVLDSDGSFFLYSKLTVDKSRWQQGNVFSCSVMHEALHHHYTRKELSLSP chain 2: DIQMTQSPSSLSASVGDSVTITCQASTDISSHLNWYQQKPGKAPELLIYYGSHLLSGVPSRFSGSGSGTDFTFTISSLEAEDAATYYCGQGNRLPYTFGQGTKVEIERTVAAPSVFIFPPSDEQLKSGTASVVCLLNNFYPREAKVQWKVDNALQSGNSQESVTEQDSKDSTYSLSSTLTLSKADYEKHKVYACEVTHQGLSSPVTKSFNRGEC | – | – | Kd [1]: 400 nM
BP264 (antibody) chain 1: QVQLQESGPGLVKPSETLSLTCAVSGHSISHDHAWSWVRQPPGEGLEWIGFISYSGITNYNPSLQGRVTISRDNSKNTLYLQMNSLRAEDTAVYYCARSLARTTAMDYWGEGTLVTVSSASTKGPSVFPLAPSSKSTSGGTAALGCLVKDYFPEPVTVSWNSGALTSGVHTFPAVLQSSGLYSLSSVVTVPSSSLGTQTYICNVNHKPSNTKVDKKVEPKSCDKTHTCPPCPAPDLLGDDSVFLFPPKPKDTLMISRTPEVTCVVVDVSEEDGEVKFNWYVDGVEVHNAKTKPREEQDNSTYRVVSVLTVLHQDWLNGKEYKCKVSNKALPRPIEKTISKAKGQPREPQVYTLPPSRDELTKNQVSLTCLVKGFYPSDIAVEWESNGQPENNYKTTPPVLDSDGSFFLYSKLTVDKSRWQQGNVFSCSVMHEALHNHYTQESLSLSP chain 2: not shown | 7.4 nM | – | –
BP220 (antibody) chain 1: QVQLQESGPGLVKPSETLSLTCAVSGHSISHDHAWSWVRQPPGEGLEWIGFISYSGITNYNPSLQGRVTISRDNSKNTLYLQMNSLRAEDTAVYYCARSLARTTAMDYWGEGTLVTVSSASTKGPSVFPLAPSSKSTSGGTAALGCLVKDYFPEPVTVSWNSGALTSGVHTFPAVLQSSGLYSLSSVVTVPSSSLGTQTYICNVNHKPSNTKVDKKVEPKSCDKTHTCPPCPAPDLLGDDSVFLFPPKPKDTLMISRTPEVTCVVVDVSDEDGEVKFNWYVDGVEVHNAKTKPREEQDNSTYRVVSVLTVLHQDWLNGKEYKCKVSNKALPKPIEKTISKAKGQPREPQVYTLPPSRDELTKNQVSLTCLVKGFYPSDIAVEWESNGQPENNYKTTPPVLDSDGSFFLYSKLTVDKSRWQQGNVFSCSVMHEALHNHYTQESLSLSP chain 2: not shown | – | 20 nM | –
BP246 (antibody) chain 1: QVQLQESGPGLVKPSETLSLTCAVSGHSISHDHAWSWVRQPPGEGLEWIGFISYSGITNYNPSLQGRVTISRDNSKNTLYLQMNSLRAEDTAVYYCARSLARTTAMDYWGEGTLVTVSSASTKGPSVFPLAPSSKSTSGGTAALGCLVKDYFPEPVTVSWNSGALTSGVHTFPAVLQSSGLYSLSSVVTVPSSSLGTQTYICNVNHKPSNTKVDKKVEPKSCDKTHTCPPCPAPDLLGDDSVFLFPPKPKDTLMISRTPEVTCVVVDVQDEDGEVKFNWYVDGVEVHNAKTKPREEQDNSTYRVVSVLTVLHQDWLNGKEYKCKVSNAALPRPIEKTISKAKGQPREPQVYTLPPSRDELTKNQVSLTCLVKGFYPSDIAVEWESNGQPENNYKTTPPVLDSDGSFFLYSKLTVDKSRWQQGNVFSCSVMHEALHNHYTQESLSLSP chain 2: not shown | – | 8 nM | –

The next lines start with results.

Kd [2] | Kd [3] | Binder | further results
1 nM | – | BP435 (antibody) chain 1: QVQLQESGPGLVKPSETLSLTCAVSGHSISHDHAWSWVRQPPGEGLEWIGFISYSGITNYNPSLQGRVTISRDNSKNTLYLQMNSLRAEDTAVYYCARSLARTTAMDYWGEGTLVTVSSASTKGPSVFPLAPSSKSTSGGTAALGCLVKDYFPEPVTVSWNSGALTSGVHTFPAVLQSSGLYSLSSVVTVPSSSLGTQTYICNVNHKPSNTKVDKKVEPKSCDKTHTCPPCPAPDLLGDDSVFLFPPKPKDTLMISRTPEVTCVVVDVSDEDGEVKFNWYVDGVEVHNAKTKPREEQDNSTYRVVSVLTVLHQDWLNGKEYKCKVSNAALPRPTEKTISKAKGQPREPQVYTLPPSRDELTKNQVSLTCLVKGFYPSDIAVEWESNGQPENNYKTTPPVLDSDGSFFLYSKLTVDKSRWQQGNVFSCSVMHEALHNHYTQESLSLSP chain 2: not shown | –
1 nM | – | BP426 (antibody) chain 1: QVQLQESGPGLVKPSETLSLTCAVSGHSISHDHAWSWVRQPPGEGLEWIGFISYSGITNYNPSLQGRVTISRDNSKNTLYLQMNSLRAEDTAVYYCARSLARTTAMDYWGEGTLVTVSSASTKGPSVFPLAPSSKSTSGGTAALGCLVKDYFPEPVTVSWNSGALTSGVHTFPAVLQSSGLYSLSSVVTVPSSSLGTQTYICNVNHKPSNTKVDKKVEPKSCDKTHTCPPCPAPDLLGDDSVFLFPPKPKDTLMISRTPEVTCVVVDVAEDDGEVKFNWYVDGVEVHNAKTKPREEQYNSTYRVVSVLTVLHQDWLNGKEYKCKVSNKALPRPIEKTISKAKGQPREPQVYTLPPSRDELTKNQVSLTCLVKGFYPSDIAVEWESNGQPENNYKTTPPVLDSDGSFFLYSKLTVDKSRWQQGNVFSCSVMHEALHNHYTQESLSLSP chain 2: not shown | –
– | 3 nM | BP243 (antibody) chain 1: QVQLQESGPGLVKPSETLSLTCAVSGHSISHDHAWSWVRQPPGEGLEWIGFISYSGITNYNPSLQGRVTISRDNSKNTLYLQMNSLRAEDTAVYYCARSLARTTAMDYWGEGTLVTVSSASTKGPSVFPLAPSSKSTSGGTAALGCLVKDYFPEPVTVSWNSGALTSGVHTFPAVLQSSGLYSLSSVVTVPSSSLGTQTYICNVNHKPSNTKVDKKVEPKSCDKTHTCPPCPAPDYLGDDSVFLFPPKPKDTLMISRTPEVTCVVVDVSDEDGEVKFNWYVDGVEVHNAKTKPREEQYNSTYRVVSVLTVLHQDWLNGKEYKCKVSNKALPRPIEKTISKAKGQPREPQVYTLPPSRDELTKNQVSLTCLVKGFYPSDIAVEWESNGQPENNYKTTPPVLDSDGSFFLYSKLTVDKSRWQQGNVFSCSVMHEALHNHYTQESLSLSP chain 2: not shown | –
– | 70 nM | BP233 (antibody) chain 1: QVQLQESGPGLVKPSETLSLTCAVSGHSISHDHAWSWVRQPPGEGLEWIGFISYSGITNYNPSLQGRVTISRDNSKNTLYLQMNSLRAEDTAVYYCARSLARTTAMDYWGEGTLVTVSSASTKGPSVFPLAPSSKSTSGGTAALGCLVKDYFPEPVTVSWNSGALTSGVHTFPAVLQSSGLYSLSSVVTVPSSSLGTQTYICNVNHKPSNTKVDKKVEPKSCDKTHTCPPCPAPEYLGDDSVFLFPPKPKDTLMISRTPEVTCVVVDVSHEDGEVKFNWYVDGVEVHNAKTKPREEQYNSTYRVVSVLTVLHQDWLNGKEYKCKVSNKALPKPIEKTISKAKGQPREPQVYTLPPSRDELTKNQVSLTCLVKGFYPSDIAVEWESNGQPENNYKTTPPVLDSDGSFFLYSKLTVDKSRWQQGNVFSCSVMHEALHNHYTQESLSLSP chain 2: not shown | –
– | 7 nM | BP249 (antibody) chain 1: QVQLQESGPGLVKPSETLSLTCAVSGHSISHDHAWSWVRQPPGEGLEWIGFISYSGITNYNPSLQGRVTISRDNSKNTLYLQMNSLRAEDTAVYYCARSLARTTAMDYWGEGTLVTVSSASTKGPSVFPLAPSSKSTSGGTAALGCLVKDYFPEPVTVSWNSGALTSGVHTFPAVLQSSGLYSLSSVVTVPSSSLGTQTYICNVNHKPSNTKVDKKVEPKSCDKTHTCPPCPAPDYLGDDSVFLFPPKPKDTLMISRTPEVTCVVVDVSDEDGEVKFNWYVDGVEVHNAKTKPREEQDNSTYRVVSVLTVLHQDWLNGKEYKCKVSNKALPRPIEKTISKAKGQPREPQVYTLPPSRDELTKNQVSLTCLVKGFYPSDIAVEWESNGQPENNYKTTPPVLDSDGSFFLYSKLTVDKSRWQQGNVFSCSVMHEALHNHYTQESLSLSP chain 2: not shown | –
